According to US20260209362A1 (VIB VZW, published 2026):

Columns and labels:
[1] = target: T1, biotinylated recombinant human IL-12Rβ2 (human, UniProt Q99665 24-622, random biotinylated); test: BLI, P.E., off-rate ranking
T1 construct: Recombinant protein produced in-house; also called hIL-12RB2; human IL-12RB2
T1 sequence: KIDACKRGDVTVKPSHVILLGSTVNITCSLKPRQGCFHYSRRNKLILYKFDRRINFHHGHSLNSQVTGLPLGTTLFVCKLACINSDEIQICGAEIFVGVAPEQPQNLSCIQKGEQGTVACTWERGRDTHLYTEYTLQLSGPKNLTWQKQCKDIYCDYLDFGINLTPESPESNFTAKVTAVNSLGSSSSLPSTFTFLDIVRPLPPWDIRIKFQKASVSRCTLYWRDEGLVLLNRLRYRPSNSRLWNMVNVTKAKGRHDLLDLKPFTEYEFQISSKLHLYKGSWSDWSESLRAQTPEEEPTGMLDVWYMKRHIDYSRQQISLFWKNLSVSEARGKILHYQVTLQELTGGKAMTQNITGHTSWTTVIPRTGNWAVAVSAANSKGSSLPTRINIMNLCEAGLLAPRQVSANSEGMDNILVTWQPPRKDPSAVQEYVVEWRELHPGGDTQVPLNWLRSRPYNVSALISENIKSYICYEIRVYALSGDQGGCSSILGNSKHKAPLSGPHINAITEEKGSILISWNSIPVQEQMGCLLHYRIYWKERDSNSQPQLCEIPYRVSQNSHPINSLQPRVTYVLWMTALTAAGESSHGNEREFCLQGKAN

[2] = target: T1, biotinylated recombinant human IL-12Rβ2; test: ELISA, P.E., biotinylated antigen
[3] = target: T2, biotinylated recombinant mouse IL-12Rβ2 (mouse, UniProt P97378 24-637, random biotinylated); test: ELISA, P.E., biotinylated antigen
T2 construct: Recombinant protein produced in-house; also called mIL-12RB2; mouse IL-12RB2
T2 sequence: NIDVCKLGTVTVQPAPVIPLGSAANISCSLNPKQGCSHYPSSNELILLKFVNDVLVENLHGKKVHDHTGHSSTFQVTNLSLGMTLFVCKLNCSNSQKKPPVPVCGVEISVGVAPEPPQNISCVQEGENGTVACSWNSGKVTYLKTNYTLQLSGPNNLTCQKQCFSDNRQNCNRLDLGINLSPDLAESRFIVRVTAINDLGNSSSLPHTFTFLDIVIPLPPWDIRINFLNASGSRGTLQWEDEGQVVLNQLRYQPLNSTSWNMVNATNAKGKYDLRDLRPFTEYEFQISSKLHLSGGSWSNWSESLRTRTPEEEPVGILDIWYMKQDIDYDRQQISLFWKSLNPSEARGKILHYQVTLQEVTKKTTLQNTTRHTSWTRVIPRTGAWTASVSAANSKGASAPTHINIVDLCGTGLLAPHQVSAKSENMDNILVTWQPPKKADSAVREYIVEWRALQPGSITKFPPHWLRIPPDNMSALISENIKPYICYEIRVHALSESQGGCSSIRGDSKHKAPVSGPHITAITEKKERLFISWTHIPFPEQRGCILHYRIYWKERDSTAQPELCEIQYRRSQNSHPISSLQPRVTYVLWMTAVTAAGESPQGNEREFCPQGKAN

Binder	Response [1]	koff [1]	ELISA hIL-12RB2/control [2]	ELISA mIL-12RB2/control [3]
anti-IL-12Rβ2 VHH clone 3CRHS1 (clone ID 20412) (VHH, not shown: small tags and cut ends, periplasmic extract) VHH: QVQLQESGGGSVQPGGSLRLSCAASGFTFSTSGMHWFRQAPGKGLEWVSSIGIIVDSSYYASSVKGRFTISRDNAKNTLYLQMNSLKSEDTAVYYCSKDPTGSSRGQGTQVTVSS	0.3	0.00283 s⁻¹	6.74	1.01
anti-IL-12Rβ2 VHH clone 3CRH27 (clone ID 20379) (VHH, not shown: small tags and cut ends, periplasmic extract) VHH: QVQLQESGGGLVQAGGSLRLSCTASGSIVSIYNMDWYRQAPGNEREWVASITSSGDPYYDGSAKGRFTISRDNAKMTVYLQMNSLKPEDTAVYYCKVPTEKGNYWGQGTQVTVSS	0.138	0.00264 s⁻¹	10.2	1.44
anti-IL-12Rβ2 VHH clone 3CRHS100 (clone ID 20428) (VHH, not shown: small tags and cut ends, periplasmic extract) VHH: QVQLQESGGGLVQPGGSLRLSCTASGSIFSIYNMDWYRQAPGNQREWVASITPSGDPYYDDSAKGRFTISRDNAKMTVYLQMNSLKPEDTAVYYCKVPTEKGNYWGQGTQVTVSS	0.209	0.00322 s⁻¹	5.88	1.05
anti-IL-12Rβ2 VHH clone 3CRHS55 (clone ID 20423) (VHH, not shown: small tags and cut ends, periplasmic extract) VHH: QVQLQESGGGLVQAGGSLNLSCTASGSIISIYNMDWYRQAPGNQREWVASITSNGDSYYDGSAKGRFTISRDNAKMTVYLQMNSLKPEDTAVYYCKVPTENGNYWGQGTQVTVSS	0.204	0.00296 s⁻¹	3.76	1.11
anti-IL-12Rβ2 VHH clone 3CRH68 (clone ID 20388) (VHH, not shown: small tags and cut ends, periplasmic extract) VHH: QVQLQESGGGLVQPGGSLRLSCTASGSILSIYNMDWYRQVPGNQREWVASITPSGDPYYDGSVKGRFTISRDNAKMMVYLQMNSLKPEDTAVYYCKVPTEKGNYWGQGTQVTVSS	0.426	0.00444 s⁻¹	4.66	1.03
anti-IL-12Rβ2 VHH clone 3CRHS54 (clone ID 20422) (VHH, not shown: small tags and cut ends, periplasmic extract) VHH: QVQLQESGGGLVQPGGSLRLSCTASGSIVSIYNMDWYRQAPGNEREWVASITSSGDPYYDGSAKGRFTISRDNAKMTVYLQMNSLEPEDTAVYFCKVPTEKGNYWGQGTQVTVSS	0.203	0.00272 s⁻¹	7.85	1.26
anti-IL-12Rβ2 VHH clone 3CRHS148 (clone ID 20436) (VHH, not shown: small tags and cut ends, periplasmic extract) VHH: QVQLQESGGGLVQPGGSLRLSCIASGSIFSIYNMDWYRQAPGNQREWVASITPSGDPYYDDSAKGRFTISRDNAKMTVYLQMNSLKPEDTAVYYCKVPTEKGNYWGQGTQVTVSS	0.0184		3.36	0.74
anti-IL-12Rβ2 VHH clone 3CRHS3 (clone ID 20414) (VHH, not shown: small tags and cut ends, periplasmic extract) VHH: QVQLQESGGGLVQPGGSLRLSCTASGSIFSIYNMDWYRQAPGNQREWVASITSSGDPYYDASVKGRFTISRDSAKMTVYLQMNSLKPEDTAVYYCKLPTEKGNYWGQGTQVTVSS	0.327	0.00225 s⁻¹	6.39	1.05
anti-IL-12Rβ2 VHH clone 2CRH33 (clone ID 20363) (VHH, not shown: small tags and cut ends, periplasmic extract) VHH: QVQLQESGGGSVQPGWSLRLTCAASGFTFSTSGMHWFRQAPGKGLEWVSSISSGGGDTYYTDSVKGRITISRDNAKNTLYLQLNDLKSEDTAVYYCSKDPSGATRGQGTQVTVSS	0.621	0.00491 s⁻¹	6.44	0.971
anti-IL-12Rβ2 VHH clone 2CRH60 (clone ID 20367) (VHH, not shown: small tags and cut ends, periplasmic extract) VHH: QVQLQESGGGSVQPGGSLRLTCAASGFTFSTSGMHWFRQAPGKGLEWVSSISSGGGDTYYTDSVKGRITISRDNAKNTLYLQLNDLKSEDTAVYYCSKDPSGATRGQGTQVTVSS	0.661	0.00533 s⁻¹	5.31	0.866
